Measurements from the Human Domainome abundance scans (Beltran et al. 2025).
± gives the uncertainty stated by the source.

B1: Nuclear receptor subfamily 4 group A member 2, residues 260 to 336; numbered along this chain, P43354 (parent)
chain: EGLCAVCGDNAACQHYGVRTCEGCKGFFKRTVQKNAKYVCLANKNCPVDKRRRNRCQYCRFQKCLAVGMVKEVVRTD

Variants of: B1
Experiment: abundance fitness (aPCA) (normalised: wild type 0, dead -1); higher = more abundant; growth selection in yeast, the domain comes from the species named
Details: Homo sapiens

Point of comparison: EGLCAVCGDNAACQHYGVRTCEGCKGFFKRTVQKNAKYVCLANKNCPVDKRRRNRCQYCRFQVCLAVGMVKEVVRTD [K63V], abundance fitness -0.304 ± 0.046. Against it:
- EGLCAVCGDNAACQHYGVRTCEGCKGFFKRTVQKNAKYVCLANKNCPVDKRRRNRCQYCRGQKCLAVGMVKEVVRTD [F61G] — lower, -1.01 ± 0.083
- EGLCAVCGDNAACQHYGVRTCEGCKGFFKRTVQKNAKYVCLANKNCPVDKRRRNRCQYCRIQKCLAVGMVKEVVRTD [F61I] — higher, 0.007 ± 0.26
- EGLCAVCGDNAACQHYGVRTCEGCKGFFKRTVQKNAKYVCLANKNCPVDKRRRNRCQYCRLQKCLAVGMVKEVVRTD [F61L] — higher, 0.057 ± 0.07
- EGLCAVCGDNAACQHYGVRTCEGCKGFFKRTVQKNAKYVCLANKNCPVDKRRRNRCQYCRMQKCLAVGMVKEVVRTD [F61M] — higher, 0.072 ± 0.13
- EGLCAVCGDNAACQHYGVRTCEGCKGFFKRTVQKNAKYVCLANKNCPVDKRRRNRCQYCRQQKCLAVGMVKEVVRTD [F61Q] — within error, -0.187 ± 0.27
- EGLCAVCGDNAACQHYGVRTCEGCKGFFKRTVQKNAKYVCLANKNCPVDKRRRNRCQYCRRQKCLAVGMVKEVVRTD [F61R] — lower, -0.989 ± 0.19
- EGLCAVCGDNAACQHYGVRTCEGCKGFFKRTVQKNAKYVCLANKNCPVDKRRRNRCQYCRSQKCLAVGMVKEVVRTD [F61S] — within error, -0.235 ± 0.21
- EGLCAVCGDNAACQHYGVRTCEGCKGFFKRTVQKNAKYVCLANKNCPVDKRRRNRCQYCRTQKCLAVGMVKEVVRTD [F61T] — within error, -0.377 ± 0.21
- EGLCAVCGDNAACQHYGVRTCEGCKGFFKRTVQKNAKYVCLANKNCPVDKRRRNRCQYCRVQKCLAVGMVKEVVRTD [F61V] — lower, -0.401 ± 0.046
- EGLCAVCGDNAACQHYGVRTCEGCKGFFKRTVQKNAKYVCLANKNCPVDKRRRNRCQYCRWQKCLAVGMVKEVVRTD [F61W] — higher, -0.05 ± 0.059
- EGLCAVCGDNAACQHYGVRTCEGCKGFFKRTVQKNAKYVCLANKNCPVDKRRRNRCQYCRFAKCLAVGMVKEVVRTD [Q62A] — higher, -0.095 ± 0.11
- EGLCAVCGDNAACQHYGVRTCEGCKGFFKRTVQKNAKYVCLANKNCPVDKRRRNRCQYCRFCKCLAVGMVKEVVRTD [Q62C] — higher, -0.153 ± 0.064
- EGLCAVCGDNAACQHYGVRTCEGCKGFFKRTVQKNAKYVCLANKNCPVDKRRRNRCQYCRFDKCLAVGMVKEVVRTD [Q62D] — within error, -0.139 ± 0.23
- EGLCAVCGDNAACQHYGVRTCEGCKGFFKRTVQKNAKYVCLANKNCPVDKRRRNRCQYCRFEKCLAVGMVKEVVRTD [Q62E] — within error, -0.245 ± 0.17
- EGLCAVCGDNAACQHYGVRTCEGCKGFFKRTVQKNAKYVCLANKNCPVDKRRRNRCQYCRFFKCLAVGMVKEVVRTD [Q62F] — within error, -0.31 ± 0.14
- EGLCAVCGDNAACQHYGVRTCEGCKGFFKRTVQKNAKYVCLANKNCPVDKRRRNRCQYCRFGKCLAVGMVKEVVRTD [Q62G] — within error, -0.297 ± 0.041
- EGLCAVCGDNAACQHYGVRTCEGCKGFFKRTVQKNAKYVCLANKNCPVDKRRRNRCQYCRFIKCLAVGMVKEVVRTD [Q62I] — within error, -0.241 ± 0.23
- EGLCAVCGDNAACQHYGVRTCEGCKGFFKRTVQKNAKYVCLANKNCPVDKRRRNRCQYCRFKKCLAVGMVKEVVRTD [Q62K] — higher, 0.079 ± 0.28
- EGLCAVCGDNAACQHYGVRTCEGCKGFFKRTVQKNAKYVCLANKNCPVDKRRRNRCQYCRFLKCLAVGMVKEVVRTD [Q62L] — higher, -0.137 ± 0.062
- EGLCAVCGDNAACQHYGVRTCEGCKGFFKRTVQKNAKYVCLANKNCPVDKRRRNRCQYCRFMKCLAVGMVKEVVRTD [Q62M] — higher, 0.079 ± 0.12
- EGLCAVCGDNAACQHYGVRTCEGCKGFFKRTVQKNAKYVCLANKNCPVDKRRRNRCQYCRFNKCLAVGMVKEVVRTD [Q62N] — within error, -0.38 ± 0.34
- EGLCAVCGDNAACQHYGVRTCEGCKGFFKRTVQKNAKYVCLANKNCPVDKRRRNRCQYCRFRKCLAVGMVKEVVRTD [Q62R] — within error, -0.234 ± 0.074
- EGLCAVCGDNAACQHYGVRTCEGCKGFFKRTVQKNAKYVCLANKNCPVDKRRRNRCQYCRFSKCLAVGMVKEVVRTD [Q62S] — higher, 0.018 ± 0.12
- EGLCAVCGDNAACQHYGVRTCEGCKGFFKRTVQKNAKYVCLANKNCPVDKRRRNRCQYCRFVKCLAVGMVKEVVRTD [Q62V] — higher, -0.137 ± 0.048
- EGLCAVCGDNAACQHYGVRTCEGCKGFFKRTVQKNAKYVCLANKNCPVDKRRRNRCQYCRFWKCLAVGMVKEVVRTD [Q62W] — within error, -0.345 ± 0.077
- EGLCAVCGDNAACQHYGVRTCEGCKGFFKRTVQKNAKYVCLANKNCPVDKRRRNRCQYCRFQACLAVGMVKEVVRTD [K63A] — higher, -0.048 ± 0.095
- EGLCAVCGDNAACQHYGVRTCEGCKGFFKRTVQKNAKYVCLANKNCPVDKRRRNRCQYCRFQDCLAVGMVKEVVRTD [K63D] — within error, -0.52 ± 0.29
- EGLCAVCGDNAACQHYGVRTCEGCKGFFKRTVQKNAKYVCLANKNCPVDKRRRNRCQYCRFQECLAVGMVKEVVRTD [K63E] — lower, -0.898 ± 0.27
- EGLCAVCGDNAACQHYGVRTCEGCKGFFKRTVQKNAKYVCLANKNCPVDKRRRNRCQYCRFQGCLAVGMVKEVVRTD [K63G] — lower, -0.559 ± 0.044
- EGLCAVCGDNAACQHYGVRTCEGCKGFFKRTVQKNAKYVCLANKNCPVDKRRRNRCQYCRFQLCLAVGMVKEVVRTD [K63L] — within error, -0.354 ± 0.088
- EGLCAVCGDNAACQHYGVRTCEGCKGFFKRTVQKNAKYVCLANKNCPVDKRRRNRCQYCRFQMCLAVGMVKEVVRTD [K63M] — higher, -0.025 ± 0.18
- EGLCAVCGDNAACQHYGVRTCEGCKGFFKRTVQKNAKYVCLANKNCPVDKRRRNRCQYCRFQRCLAVGMVKEVVRTD [K63R] — within error, -0.206 ± 0.072
- EGLCAVCGDNAACQHYGVRTCEGCKGFFKRTVQKNAKYVCLANKNCPVDKRRRNRCQYCRFQTCLAVGMVKEVVRTD [K63T] — higher, 0.038 ± 0.15
- EGLCAVCGDNAACQHYGVRTCEGCKGFFKRTVQKNAKYVCLANKNCPVDKRRRNRCQYCRFQWCLAVGMVKEVVRTD [K63W] — lower, -0.569 ± 0.078
